Assay results taken from article PMC11252911 (Proceedings of the National Academy of Sciences of the …, 2024).

Experiments:
[1] = molecular target: Pwl2-3 (Magnaporthe oryzae); assay: ITC
[2] = molecular target: Pwl2-2 (Magnaporthe oryzae); assay: ITC

“HMA domain of OsHIPP43 (residues 26 to 101) (from UniProt Q8LJL3 26-101) (domain or fragment)” gave a Kd [1] of 35 nM and a Kd [2] of 141 nM.
